For 8 molecules, IC50 results are on record in patent US20150167004, “OLIGONUCLEOTIDE INHIBITORS OF DNA […] AND THEIR USE IN TREATING DISEASES” (METHEOR THERAPEUTICS CORPORATION, published 2015).

The target in series [1] is T1, DNMT3B (DNMT3b1) (Homo sapiens, UniProt Q9UBC3 Q9UBC3:1-853). Kind of series: inhibition; tritiated methyl incorporation from SAM; IC50 not estimable in Table 4.
Series [2] has as its target T2, DNMT3A (Homo sapiens, UniProt Q9Y6K1 Q9Y6K1:1-912). Briefly: inhibition; 25 nM DNMT3A, lambda DNA substrate, 1 uM SAM.
Series [3] addresses T3, DNMT1 (Homo sapiens, UniProt P26358 P26358:1-1616). Briefly: inhibition; 25 nM DNMT1, poly(dI:dC) substrate, 1 uM SAM; table header cites SEQ 5 and 6 but oligo is MTC-424F/R; Table 5 gives 1.43 uM. Here is the method: (§1) DNA Methyltransferase 1 (DNMT1) was essentially assayed as described in Tollefsbol, T. O. and Hutchison III, C. A.: J. Biol. Chem. (1995), 270:18543-50 with the following modifications. Assay reaction was 5 μl volume, the DNA substrate was poly (dI:dC) 0.001 mg/ml and co-factor S-AdoMet at 1.0 μM; human DNMT1 was added at 25 nM. Reaction: S-adenosyl-L-[methyl-3H] methionine+DNA=S-adenosyl-L-homocysteine+DNA 5-[methyl-3H]-cytosine. S-AdoHCy was used as a positive control for the inhibition reaction.

The target of series [4] is T3, DNMT1. Kind of series: inhibition; tritiated methyl incorporation from SAM.
Series [5] addresses T3, DNMT1. Briefly: inhibition; 25 nM DNMT1, poly(dI:dC) substrate, 1 uM SAM; Table 5 gives 5.52 uM. Particulars: hairpin. On the procedure: as §1
Series [6] has as its target T1, DNMT3B (DNMT3b1). Kind of series: inhibition; 25 nM DNMT3B, lambda DNA substrate, 1 uM SAM.
The target in series [7] is T1, DNMT3B (DNMT3b1). Briefly: inhibition; tritiated methyl incorporation from SAM.
The target of series [8] is T2, DNMT3A. The series is described as above.
Series [9] addresses T2, DNMT3A. Briefly: inhibition; 25 nM DNMT3A, lambda DNA substrate, 1 uM SAM; Table 5 gives 1.5 uM.
Series [10] addresses T3, DNMT1. Kind of series: inhibition; 25 nM DNMT1, poly(dI:dC) substrate, 1 uM SAM; Table 5 gives 348 nM. To be noted: hairpin. On the procedure: as §1
The target of series [11] is T1, DNMT3B (DNMT3b1). Kind of series: inhibition; 25 nM DNMT3B, lambda DNA substrate, 1 uM SAM; Table 5 gives 18.9 uM.

T2 sequence (Q9Y6K1 whole entry, one chain of several): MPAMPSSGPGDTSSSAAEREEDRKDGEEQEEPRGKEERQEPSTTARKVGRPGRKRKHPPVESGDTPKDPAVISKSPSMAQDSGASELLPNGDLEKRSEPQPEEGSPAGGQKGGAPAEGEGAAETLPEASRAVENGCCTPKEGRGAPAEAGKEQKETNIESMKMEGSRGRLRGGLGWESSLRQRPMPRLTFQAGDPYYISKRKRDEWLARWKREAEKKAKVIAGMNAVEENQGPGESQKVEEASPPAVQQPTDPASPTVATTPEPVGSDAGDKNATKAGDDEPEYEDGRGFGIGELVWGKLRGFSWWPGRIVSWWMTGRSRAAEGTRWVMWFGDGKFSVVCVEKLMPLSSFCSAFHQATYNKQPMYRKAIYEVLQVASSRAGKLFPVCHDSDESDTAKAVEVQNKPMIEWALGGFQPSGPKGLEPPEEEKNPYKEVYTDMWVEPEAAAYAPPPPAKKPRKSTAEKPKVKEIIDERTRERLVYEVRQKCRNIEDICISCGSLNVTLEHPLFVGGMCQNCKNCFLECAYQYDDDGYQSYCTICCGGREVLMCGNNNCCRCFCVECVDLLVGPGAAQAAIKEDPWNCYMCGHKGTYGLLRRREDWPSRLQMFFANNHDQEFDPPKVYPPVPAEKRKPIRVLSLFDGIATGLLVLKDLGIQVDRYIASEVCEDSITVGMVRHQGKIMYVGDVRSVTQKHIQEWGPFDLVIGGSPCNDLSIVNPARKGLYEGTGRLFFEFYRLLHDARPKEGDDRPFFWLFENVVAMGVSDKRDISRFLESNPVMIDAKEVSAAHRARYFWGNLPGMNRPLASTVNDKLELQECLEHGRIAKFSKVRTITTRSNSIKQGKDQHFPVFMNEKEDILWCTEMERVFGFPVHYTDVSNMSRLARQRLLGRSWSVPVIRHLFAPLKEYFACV
T3 sequence (P26358 whole entry, one chain of several): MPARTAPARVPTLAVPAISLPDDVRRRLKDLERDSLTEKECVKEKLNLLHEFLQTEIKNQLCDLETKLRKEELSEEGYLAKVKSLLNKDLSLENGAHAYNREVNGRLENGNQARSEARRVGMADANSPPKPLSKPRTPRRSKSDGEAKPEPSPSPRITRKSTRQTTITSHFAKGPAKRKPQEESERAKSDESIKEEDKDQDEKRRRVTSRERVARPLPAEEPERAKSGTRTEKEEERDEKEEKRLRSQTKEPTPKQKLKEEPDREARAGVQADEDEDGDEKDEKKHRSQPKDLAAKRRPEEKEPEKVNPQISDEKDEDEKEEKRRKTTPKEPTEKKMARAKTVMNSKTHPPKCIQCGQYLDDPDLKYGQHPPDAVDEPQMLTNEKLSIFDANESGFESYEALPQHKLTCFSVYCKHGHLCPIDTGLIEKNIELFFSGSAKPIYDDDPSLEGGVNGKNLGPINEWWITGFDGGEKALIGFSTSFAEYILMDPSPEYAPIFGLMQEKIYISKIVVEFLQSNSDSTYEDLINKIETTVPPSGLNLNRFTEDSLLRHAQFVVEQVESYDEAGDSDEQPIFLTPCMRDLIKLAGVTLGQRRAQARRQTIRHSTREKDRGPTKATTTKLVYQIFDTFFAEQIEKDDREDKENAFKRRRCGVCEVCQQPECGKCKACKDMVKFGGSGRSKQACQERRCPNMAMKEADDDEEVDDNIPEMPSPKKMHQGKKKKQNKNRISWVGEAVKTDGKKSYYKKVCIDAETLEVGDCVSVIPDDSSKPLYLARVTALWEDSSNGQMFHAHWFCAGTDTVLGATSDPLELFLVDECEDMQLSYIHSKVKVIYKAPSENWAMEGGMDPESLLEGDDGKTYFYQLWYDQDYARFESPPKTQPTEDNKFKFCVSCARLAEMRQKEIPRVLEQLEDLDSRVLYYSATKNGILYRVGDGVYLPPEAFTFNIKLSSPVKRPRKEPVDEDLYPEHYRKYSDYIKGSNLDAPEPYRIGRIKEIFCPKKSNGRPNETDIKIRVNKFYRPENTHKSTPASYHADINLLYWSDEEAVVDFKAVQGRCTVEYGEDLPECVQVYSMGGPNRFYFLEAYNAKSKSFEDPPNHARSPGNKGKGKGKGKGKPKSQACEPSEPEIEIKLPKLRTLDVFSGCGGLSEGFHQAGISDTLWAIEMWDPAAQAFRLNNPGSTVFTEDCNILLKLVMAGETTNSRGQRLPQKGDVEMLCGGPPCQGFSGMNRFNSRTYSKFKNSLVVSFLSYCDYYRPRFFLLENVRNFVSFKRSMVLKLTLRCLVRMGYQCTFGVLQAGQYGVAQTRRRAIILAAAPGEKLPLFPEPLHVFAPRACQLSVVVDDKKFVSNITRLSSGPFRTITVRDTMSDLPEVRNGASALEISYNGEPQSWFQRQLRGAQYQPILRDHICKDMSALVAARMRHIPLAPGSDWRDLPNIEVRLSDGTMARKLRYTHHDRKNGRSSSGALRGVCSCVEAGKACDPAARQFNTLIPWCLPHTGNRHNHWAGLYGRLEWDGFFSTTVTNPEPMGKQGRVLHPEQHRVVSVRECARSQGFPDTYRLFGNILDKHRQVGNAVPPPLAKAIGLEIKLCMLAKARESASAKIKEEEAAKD

B1: MTC-424 (dsDNA)
DNA 1: GTACATGCGCTCCAGA
DNA 2: TCTGGAGCGCATGTAC
modifications: 5-aza-5,6-dihydro-dC at 8 of F strand; phosphodiester [F strand: 8]
Broadly, the IC50 is the point on the concentration scale where inhibition reaches its midpoint. Read a high IC50 as a need for much substance. For the molecule B1, the IC50 in the series with DNMT3B (DNMT3b1) [1] is above 100 µM; with DNMT3A [2] it was 10.2 µM; with DNMT1 [3], 1.94 µM.

As to CCTATGCGATCGAGTTTTCTCGATCGCATAGG (structured_DNA, 5mC at 7 and 11; deoxy-zebularine at 21 and 25; PS backbone [7,11,21,25]) [MTC-433], the midpoint of inhibition with DNMT1 [4] (hairpin), the IC50, lay at 0.00422 µM.

B2: MTC-422 (structured_DNA)
DNA: CCTATGCGATCGAGTTTTCTCGATCGCATAGG
modifications: 5-aza-5,6-dihydro-dC at 21 and 25; phosphodiester [21, 25 (5-aza-5,6-dihydro-dC)]
For the molecule B2, the IC50 with DNMT3A [2] came to 5.7 µM; with DNMT1 [5], 1.43 µM; with DNMT3B (DNMT3b1) [6], 21.3 µM.

For the molecule CCTATGCGATCGAGTTTTCTCGATCGCATAGG (structured_DNA, 5mC at 7 and 11; 5-aza-5,6-dihydro-dC at 21 and 25; phosphodiester [7,11,21,25]) [MTC-425 (MTC-422m)], the results for the IC50 with DNMT3B (DNMT3b1) [7], in the series with DNMT3A [8] and in the series with DNMT1 [4] (hairpin) were above 100 µM, 6.69 µM and 0.504 µM, respectively.

B3: MTC-427 (MTC-423m) (structured_DNA)
DNA: B2 DNA
modifications: 5mC at 7 and 11; zebularine (pyrimidin-2-one ribonucleoside) at 21 and 25; phosphodiester [7,11,21,25]
On to B3, for which the IC50 with DNMT3B (DNMT3b1) [7] is 6.2 µM; with DNMT3A [8], 1.52 µM; with DNMT1 [4] (hairpin), 0.295 µM.

With CCTATGCGATCGAGTTTTCTCGATCGCATAGG (structured_DNA, deoxy-zebularine at 21 and 25; PS backbone [21,25]) [MTC-432], the half-maximal inhibitory concentration (IC50) with DNMT1 [4] (hairpin) was 0.0083 µM.

B4: MTC-423 (structured_DNA)
DNA: B2 DNA
modifications: zebularine (pyrimidin-2-one ribonucleoside) at 21 and 25; phosphodiester [21,25]
Consider B4, for which the IC50 with DNMT3A [9] amounted to 1.6 µM; in the series with DNMT1 [10], 0.363 µM; in the series with DNMT3B (DNMT3b1) [11] it was 17.5 µM.

B5: MTC-429 (dsDNA)
DNA 1: GTACATGCGCTCCAGA
DNA 2: TCTGGAGCGCATGTAC
modifications: 5-aza-5,6-dihydro-dC at 8 of F strand; 5mC at 8 of R strand; phosphodiester [F strand: 8; R strand: 8]
For B5, the IC50 with DNMT3A [8] was above 50 µM; in the series with DNMT1 [4] it was 0.906 µM.
